# Experimental data as given in article PMC13046434 (European journal of pharmacology, 2025).
# Like-named read-outs stand apart in the source and are kept apart here.
# Legend:
# E223A hNET [1] = target: T1, E223A hNET (Homo sapiens, UniProt P23975, E223A); assay: kinetic analysis of [3H]DA uptake, E223A hNET; assay type: cell-based; parameters: expressed in transfected cells; host or cells: CHO cells, transient transfection with Lipofectamine 2000
# Protocol: (§1) The kinetic parameters of [^3H]DA uptake, maximal velocity (Vmax) and Michalis-Menton constant (Km), were determined in CHO cells transiently transfected with WT hNET and its mutants seeded in 24 well plates as described above. […] After the 10-min incubation period, cells were incubated for 8 min at room temperature with a series of one of six concentrations of mixed [^3H]DA (0.001–1.0 μM, final concentration). The reaction was terminated by the removal of solution from the wells followed by three rapid washes of ice-cold 1 x KRH. Cells were lysed with 500 μL of 1 % SDS for 1 h and radioactivity measured as described above. Specific hNET-mediated DA uptake was calculated by subtracting the nonspecific uptake (in the presence of desipramine and nomifensine) from the total uptake.
# (§2) Results are presented as mean ± SEM. The number of n represents the number of independent experiments from each experiment group. Kinetic parameters (Vmax and Km) were determined from saturation curves by nonlinear regression analysis using a one-site model with variable slope. IC50 values for the substrate and inhibitors for [^3H]DA uptake were determined from nonlinear regression analysis inhibition curves using a one-site model with variable slope. GraphPad Prism (version 10.1.2.) was used to calculate the kinetic parameters and IC50 values for substrate and inhibitors inhibiting [^3H]DA uptake or [^3H] WIN35428. For any experiment involving comparisons between unpaired samples, unpaired Student’s t tests were used to determine any difference between parameters between WT hNET and its mutants. Log-transformed IC50 values were used for statistical comparisons. One-way ANOVA comparisons with repeat measurements were used for analyzing the [^3H]DA and [^3H]MPP^+ efflux data. Significant differences between samples were analyzed with independent ANOVAs followed by post-hoc tests, which is indicated in the Results Section of the efflux experiments. All statistical analyses were performed using the IBM SPSS Statistics version 29 and returned values of at least p < 0.05 were considered significant.
# N198A hNET [2] = target: T2, N198A hNET (Homo sapiens, UniProt P23975, N198A); assay: kinetic analysis of [3H]DA uptake, N198A hNET; assay type: cell-based; parameters: expressed in transfected cells; host or cells: CHO cells, transient transfection with Lipofectamine 2000
# Protocol: as §1, §2
# WT hNET [3] = target: T3, WT hNET (Homo sapiens, UniProt P23975); assay: kinetic analysis of [3H]DA uptake, WT hNET; assay type: cell-based; parameters: expressed in transfected cells; host or cells: CHO cells, transient transfection with Lipofectamine 2000
# Protocol: as §1
# Results are presented as mean ± SEM. […] Kinetic parameters (Vmax and Km) were determined from saturation curves by nonlinear regression analysis using a one-site model with variable slope. IC50 values for the substrate and inhibitors for [^3H]DA uptake were determined from nonlinear regression analysis inhibition curves using a one-site model with variable slope. […] Significant differences between samples were analyzed with independent ANOVAs followed by post-hoc tests, which is indicated in the Results Section of the efflux experiments. […]
# E223A hNET [4] = target: T1, E223A hNET; assay: basal [3H]DA and [3H]MPP+ efflux, E223A hNET; assay type: cell-based; parameters: expressed in transfected cells; host or cells: CHO cells, transient transfection with Lipofectamine 2000; details: across 90 min, preloaded 50 nM, 20 min
# Protocol: (§3) To determine whether N198A or E223A hNET alters transporter conformational transients, [^3H]DA or [^3H]MPP^+ efflux was performed based on our previous studies ([Midde et al., 2015]; [Quizon et al., 2021]). Intact CHO cells in precoated 24-well plates transfected with WT hNET or its mutants were preloaded with [^3H]DA (50 nM final concentration) for 20 min or [^3H]MPP^+ (5 nM final concentration) for 30 min at room temperature. After the preloading period, cells were washed twice with 1 x KRH buffer before collecting fractional release samples. Total uptake of [^3H]DA or [^3H]MPP^+ at the zero time point was estimated from four wells per genotype that were lysed immediately with 1 % SDS after preloading period. Nonspecific uptake of [^3H]DA or [^3H]MPP^+ at zero time point was estimated from four wells per genotype that were incubated with the hNET inhibitors desipramine and nomifensine (100 μM and 10 μM final concentration, respectively) and lysed immediately with 1 % SDS after the preloading period. To collect fractional release, 500 μL of KRH buffer was added into a set of four wells and transferred to scintillation vials after 0 min as the initial fractional efflux. Fresh 500 μL of 1 x KRH buffer was added into the wells and incubated for 10 min then transferred to scintillation vials. Fractional efflux was collected every 10 min for 90 min ([^3H]DA) or 110 min ([^3H]MPP^+). […]
# N198A hNET [5] = target: T2, N198A hNET; assay: basal [3H]DA and [3H]MPP+ efflux, N198A hNET; assay type: cell-based; parameters: expressed in transfected cells; host or cells: CHO cells, transient transfection with Lipofectamine 2000; details: across 90 min, preloaded 50 nM, 20 min
# Protocol: as §3
# E223A hNET [6] = target: T1, E223A hNET; assay type: binding; parameters: expressed in transfected cells; host or cells: CHO cells, transient transfection with Lipofectamine 2000
# N198A hNET [7] = target: T2, N198A hNET; assay type: binding; parameters: expressed in transfected cells; host or cells: CHO cells, transient transfection with Lipofectamine 2000
# WT hNET [8] = target: T3, WT hNET; assay type: binding; parameters: expressed in transfected cells; host or cells: CHO cells, transient transfection with Lipofectamine 2000
# N198A hNET [9] = target: T2, N198A hNET
# WT hNET [10] = target: T3, WT hNET
# E223A hNET [11] = target: T1, E223A hNET
# WT hNET [12] = target: T3, WT hNET; assay: Ki of rTat1-86 inhibiting [3H]DA uptake in WT hNET cell suspensions; assay type: cell-based; parameters: expressed in transfected cells; host or cells: CHO cells, transient transfection with Lipofectamine 2000
# Protocol: To determine the inhibitor constant (Ki) of rTat1-86 inhibiting DA uptake in WT hNET, cells in 10 cm plates were cultured and transfected with WT hNET as described above. All reagents were made in 1 x KRH containing 0.1 % Protease Inhibitor Cocktail 1 (P2850, Sigma-Aldrich) and 0.1 % Protease Inhibitor Cocktail (P8340, Sigma-Aldrich). Cells were detached and harvested as described above. The cell suspensions were then incubated with a range of rTat1-86 (0.25–140 nM, final concentrations) for 20 min at room temperature. […] The reaction was then terminated as described above.
# [13] = per 10^6 cells, DA 0.001-1.0 μM
# T3 sequence (P23975 whole entry): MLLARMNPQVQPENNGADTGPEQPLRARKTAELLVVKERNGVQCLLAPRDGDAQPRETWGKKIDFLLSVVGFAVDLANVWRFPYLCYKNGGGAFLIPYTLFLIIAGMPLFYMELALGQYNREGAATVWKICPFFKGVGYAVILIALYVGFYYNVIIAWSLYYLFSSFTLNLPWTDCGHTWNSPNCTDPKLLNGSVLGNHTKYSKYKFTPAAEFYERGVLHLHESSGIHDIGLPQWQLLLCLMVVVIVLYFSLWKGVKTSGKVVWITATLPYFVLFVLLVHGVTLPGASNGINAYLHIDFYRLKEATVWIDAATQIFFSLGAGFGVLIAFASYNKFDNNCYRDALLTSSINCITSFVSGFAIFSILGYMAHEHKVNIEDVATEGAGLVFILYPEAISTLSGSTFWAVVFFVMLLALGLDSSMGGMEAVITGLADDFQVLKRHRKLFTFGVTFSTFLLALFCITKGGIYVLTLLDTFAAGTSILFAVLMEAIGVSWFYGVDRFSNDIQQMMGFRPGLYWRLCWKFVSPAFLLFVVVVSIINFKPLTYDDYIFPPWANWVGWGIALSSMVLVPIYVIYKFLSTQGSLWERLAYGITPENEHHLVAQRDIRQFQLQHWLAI
# T2 sequence (P23975 whole entry N198A): as the sequence (P23975 whole entry) above, with N198A counted along it
# T1 sequence (P23975 whole entry E223A): as the sequence (P23975 whole entry) above, with E223A counted along it
molecule,measurement,setting,value
"NCCc1ccc(O)c(O)c1 [[^3H]DA, 3,4-ethyl-2[N-P^3PH]dihydroxyphenylethylamine]",Km,E223A hNET [1],0.066 ± 0.011 µM
same,Km,N198A hNET [2],0.084 ± 0.02 µM
same,Km,WT hNET [3],0.057 ± 0.008 µM
"[3H]c1c([3H])c(CCN)c([3H])c(O)c1O [[^3H]DA, 3,4-ethyl-2[N-P^3PH]dihydroxyphenylethylamine]",reduction in Vmax of [3H]DA uptake compared to WT hNET,E223A hNET [1],71.2%
same,Vmax of [3H]DA uptake,E223A hNET [1]; [13],151.1 ± 14.5 fmol/min/10^6
same,overall [3H]DA efflux compared to WT hNET,E223A hNET [4],significantly reduced
same,reduction in Vmax of [3H]DA uptake compared to WT hNET,N198A hNET [2],82.6%
same,Vmax of [3H]DA uptake,N198A hNET [2]; [13],91.4 ± 16.4 fmol/min/10^6
same,Vmax of [3H]DA uptake,WT hNET [3]; [13],525.4 ± 89.8 fmol/min/10^6
same,overall [3H]DA efflux compared to WT hNET,N198A hNET [5],significantly reduced
COC(=O)[C@H]1[C@@H](c2ccc(F)cc2)C[C@@H]2CC[C@H]1N2C [[^3H]WIN35428],specific [3H]WIN35428 binding,E223A hNET [6],11806 ± 567 DPM
same,specific [3H]WIN35428 binding normalized as a percentage of WT hNET,E223A hNET [6],83.83 ± 4.0
same,specific [3H]WIN35428 binding,N198A hNET [7],11361 ± 652 DPM
same,specific [3H]WIN35428 binding normalized as a percentage of WT hNET,N198A hNET [7],80.67 ± 4.6%
same,specific [3H]WIN35428 binding,WT hNET [8],14083 ± 1198 DPM
same,specific [3H]WIN35428 binding normalized as a percentage of WT hNET,WT hNET [8],100 ± 8.5%
"rTat1-86: recombinant HIV-1 transactivator of transcription (rTat1-86), purchased from ImmunoDX",Tat-induced reduction of [3H]DA uptake compared to its control,N198A hNET [9]; 8.75 nM rTat1-86,attenuated
same,"specific [3H]DA uptake with Tat, direct counts",N198A hNET [9]; 8.75 nM rTat1-86 (without Tat: 1934 ± 210),1883 ± 175 DPM
same,Tat-induced reduction of [3H]DA uptake compared to its control,N198A hNET [9]; 140 nM rTat1-86,attenuated
same,"specific [3H]DA uptake with Tat, direct counts",N198A hNET [9]; 140 nM rTat1-86 (without Tat: 912 ± 212),954 ± 213 DPM
same,reduction of specific [3H]DA uptake relative to control,WT hNET [10]; 8.75 nM rTat1-86,24.2%
same,"specific [3H]DA uptake with Tat, direct counts",WT hNET [10]; 8.75 nM rTat1-86 (without Tat: 2778 ± 240),2106 ± 191 DPM
same,reduction of specific [3H]DA uptake relative to control,WT hNET [10]; 140 nM rTat1-86,34.22%
same,"specific [3H]DA uptake with Tat, direct counts",WT hNET [10]; 140 nM rTat1-86 (without Tat: 1870 ± 238),1230 ± 163 DPM
same,reduction of specific [3H]DA uptake relative to control,"WT hNET [10]; 140 nM rTat1-86, listed as recombinant Tat1-86",34%
same,Tat-induced reduction of [3H]DA uptake compared to its control,E223A hNET [11]; 8.75 nM rTat1-86,attenuated
same,"specific [3H]DA uptake with Tat, direct counts",E223A hNET [11]; 8.75 nM rTat1-86 (without Tat: 2113 ± 237),1950 ± 215 DPM
same,reduction of specific [3H]DA uptake relative to control,E223A hNET [11]; 140 nM rTat1-86,26.98%
same,"specific [3H]DA uptake with Tat, direct counts",E223A hNET [11]; 140 nM rTat1-86 (without Tat: 1711 ± 261),1206 ± 239 DPM
same,predicted occupancy of hNET molecules,"WT hNET [12]; 8.75 nM rTat1-86, approximately 2.6-fold the Ki",~ 72%
same,predicted occupancy of hNET molecules,"WT hNET [12]; 140 nM rTat1-86, approximately 41.2-fold the Ki",~ 98%
same,plateau of Tat's inhibitory effect on DA uptake,"WT hNET [12]; WT hNET, Tat concentrations from 8.75 nM to 140 nM",65.2%
same,Ki,"WT hNET [12]; WT hNET, rTat1-86 0.25-140 nM, 20 min, 50 nM [3H]DA, read-out: Ki for inhibiting hNET-mediated DA uptake",3.4 nM
